The values below are quoted from earlier work in article PMC4785862.

Like-named read-outs stand apart in the source and are kept apart here.

In data set [1] the target is IL-8 (Homo sapiens) (UniProt P10145).
Data set [2] shares this target. The source holds these as a separate data set.

Sequence of IL-8 (Homo sapiens) (P10145 28-99): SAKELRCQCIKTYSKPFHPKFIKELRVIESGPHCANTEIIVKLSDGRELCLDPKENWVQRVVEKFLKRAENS
Sequence of CXCR1 (P25024 whole entry): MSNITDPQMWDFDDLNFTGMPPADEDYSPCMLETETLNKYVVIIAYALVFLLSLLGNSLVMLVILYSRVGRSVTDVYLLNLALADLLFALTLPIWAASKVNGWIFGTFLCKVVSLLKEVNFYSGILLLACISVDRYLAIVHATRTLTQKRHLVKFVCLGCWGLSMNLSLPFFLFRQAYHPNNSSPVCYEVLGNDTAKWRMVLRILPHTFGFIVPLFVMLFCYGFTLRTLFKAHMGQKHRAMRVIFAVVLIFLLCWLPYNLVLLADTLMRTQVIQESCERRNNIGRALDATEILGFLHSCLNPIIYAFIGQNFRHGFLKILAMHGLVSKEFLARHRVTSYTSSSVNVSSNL
Sequence of CXCR2 (P25025 whole entry): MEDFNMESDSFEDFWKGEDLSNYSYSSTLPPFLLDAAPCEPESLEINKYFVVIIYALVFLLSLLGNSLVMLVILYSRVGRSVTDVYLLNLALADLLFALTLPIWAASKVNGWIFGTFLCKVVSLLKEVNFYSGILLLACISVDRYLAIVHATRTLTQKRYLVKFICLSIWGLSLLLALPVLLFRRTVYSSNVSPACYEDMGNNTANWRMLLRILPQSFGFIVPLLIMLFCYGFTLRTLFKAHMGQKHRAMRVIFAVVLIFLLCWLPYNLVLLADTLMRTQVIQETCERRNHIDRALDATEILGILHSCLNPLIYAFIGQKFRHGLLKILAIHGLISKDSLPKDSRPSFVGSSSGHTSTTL

For orientation: Kd means the concentration at which binding is half-saturated. As to CXCR2 (from UniProt P25025), the Kd in data set [1] was 2.5 nM. As for CXCR1 (from UniProt P25024), in data set [2], the Kd was 5 nM.
